# Measurements: patent CN111748032A (JIANGSU PROVINCIAL CENTER FOR DISEASE CONTROL AND …, dated 2020)
# Positions count from the first letter of the chain named.
# B1: JS14 (antibody, V domains shown)
# VH: EVQLLESGGGVVQPGRSLRLSCAASGFTFSSYGMHWVRQAPGKGLEWVAVIWYDGSNKYYADSVKGRFTISRDNSKNTLYLQMNSLRAEDTAVYYCARDGSGSYYWGSLDYWGQGTLVTVSS
# VL: not shown
# B2: JS01 (antibody, V domains shown)
# VH: QVQLVESGAEVKKPGSSVKVSCKASGGTFSSYAISWVRQAPGQGLEWMGGIIPIFGTANYAQKFQGRVTITADESTSTAYMELSSLRSEDTAVYYCARGGWRSSGYHDYSYYGMDVWGQGTTVTVSS
# VL: not shown
# B3: JS13 (antibody, V domains shown)
# VH: QVQLVQSGAEVKKPGSSVKVSCKASGGTFSSYAISWVRQAPGQGLEWMGGIIPIFGTANYAQKFQGRVTITADESTSTAYMELSSLRSEDTAVYYCARGGWVICSSTSCYTKYSYYGMDVWGQGTTVTVSS
# VL: QSVLTQPPSVSAAPGQKVTISCSGSSSNIGNNYVSWYQQLPGTAPKLLIYDNNKRPSGIPDRFSGSKSGTSATLGITGLQTGDEADYYCGTWDSSLIARLFGGGTKLTVL
# B4: JS05 (antibody, V domains shown)
# VH: EVQLLESGGGVVQPGRSLRLSCAASGFIFSSYGMHWVRQAPGKGLEWVAVIWYDGSNKYYADSVKGRFTISRDNSKNTLYLQMNSLRAEDTAVYYCARDLRGPTGWTFDYWGQGTLVTVSS
# VL: ENVLTQSPATLSLSPGERATLSCRASQSVSNYLAWYQQRPGQAPRLLIYDSSNRATGIPARFSGSGSGTDFTLTISSLEPEDFAVYYCQHRSNWKITFGQGTRLEIK
# B5: JS12 (antibody, V domains shown)
# VH: B1 VH
# VL: B4 VL with N31S, R39K, D50G, S51A, H90Q, K95P, I96W, R103K, L104V
# Target: 重组SARS-CoV2核蛋白(NP) (SARS-CoV-2, UniProt P0DTC9 1-419)
# Experiment: double-antibody sandwich lateral flow strip, paired with JS08, recombinant NP
row,Binder,检测限 (detection limit)
1,B1,< 2 ng/mL
2,B2,< 2 ng/mL
3,B3,< 2 ng/mL
4,B4,< 2 ng/mL
5,B5,< 2 ng/mL
